The target in test [1] is T1, human CLDN18.2 (human, UniProt P56856-2 1-261).
T1 construct: whole, on cells; also called CLDN18.2 wild-type
T1 sequence (looked up): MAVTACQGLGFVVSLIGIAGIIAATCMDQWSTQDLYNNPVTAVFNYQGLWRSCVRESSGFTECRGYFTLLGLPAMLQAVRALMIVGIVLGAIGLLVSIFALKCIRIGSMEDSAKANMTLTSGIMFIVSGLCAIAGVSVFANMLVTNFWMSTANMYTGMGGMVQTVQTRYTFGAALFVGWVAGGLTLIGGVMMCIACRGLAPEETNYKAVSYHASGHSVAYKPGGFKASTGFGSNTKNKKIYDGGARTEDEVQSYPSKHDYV
In words: flow cytometry, IgG1 (0-533 nM) on HEK293 cells expressing human CLDN18.2. The method, then:
(§1) Purified CLDN18.2 antibodies were then characterized for affinity and cross-reactivity by flow cytometry. Briefly. HEK293 cells expressing human, cynomolgous monkey, rat or mouse CLDN18.2 were resuspended in FACS Buffer, stained with varying antibody concentrations (0-533 nM), washed with FACS Buffer, stained with Alexa Fluor® 647 AffiniPure F(ab′)₂ Fragment Goat Anti-Human IgG, washed with FACS buffer and stained with FACS buffer supplemented with DAPI. Antibody binding to cells was assessed on a FACSymphony (BD) with gates for live/dead cells. Histograms of median fluorescence intensity (MFI) were used to calculate the geometric mean for each antibody at a given concentration (FlowJo, LLC). Geometric means were plotted in Prism (GraphPad) and used to calculated binding EC₅₀. Representative results are shown for 5 antibodies (ZP1I16_D05 IgG1, 008LY1_D04 IgG1, 08LYG_D08 IgG1, 008M0G_G03 IgG1, ZP1I18_B08 IgG1) and 1 negative control antibody (R347 IgG1) although 31 other prospective antibodies were also characterized (Table 1).
On the technique in general: In flow cytometry, cells or beads pass a laser one at a time.

Test [2] addresses T1, human CLDN18.2. In words: flow cytometry on HEK293 cells expressing human CLDN18.2 (FIG. 2A).
Text: FIGS. 2A-2D show CLDN18.2 binding affinity and species cross-reactivity of select leads as determined by flow cytometry measurement in HEK293 cells expressing human (FIG. 2A), cyno (FIG. 2B), rat (FIG. 2C) or mouse (FIG. 2D) CLDN18.2. All leads bind human and cyno CLDN18.2 (99% homology), most leads bind rat CLDN18.2 (90% homology) and only one internal lead binds murine CLDN18.2 (89% homology. R347 is used as a negative control.
as §1

A further test has as its target T2, mouse CLDN18.2 (mouse, UniProt P56857-3 1-264).
T2 construct: whole, on cells; also called murine CLDN18.2; mCLDN18.2
T2 sequence (looked up): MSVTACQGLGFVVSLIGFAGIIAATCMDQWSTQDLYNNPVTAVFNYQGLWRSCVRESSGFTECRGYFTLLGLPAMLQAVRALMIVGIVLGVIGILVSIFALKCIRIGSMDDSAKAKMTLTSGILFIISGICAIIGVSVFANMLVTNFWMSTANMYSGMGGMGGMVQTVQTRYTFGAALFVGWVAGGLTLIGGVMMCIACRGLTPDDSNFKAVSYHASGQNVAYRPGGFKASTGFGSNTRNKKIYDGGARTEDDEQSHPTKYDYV
Nature of the test: flow cytometry, IgG1 (0-533 nM) on HEK293 cells expressing mouse CLDN18.2. The method, then: as §1

B1: ZP1I16_D05 IgG1 (antibody, V domains shown)
VH: QVQLVQSGAEVKKPGSSVKVSCKASGGTFSSYAISWVRQAPGQGLEWMGGIIPIFGTANYAQKFQGRVTITADESTSTAYMELSSLRSEDTAVYYCARGFIRYGVFDYWGQGTLVTVSS
VL: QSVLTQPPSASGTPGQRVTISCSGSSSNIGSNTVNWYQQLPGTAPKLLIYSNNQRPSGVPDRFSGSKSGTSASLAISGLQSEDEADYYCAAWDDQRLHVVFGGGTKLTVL
notes: Tested as IgG1 with lambda light chain (pOE-IgG1 (λLC))
With B1, in the test with human CLDN18.2 [1], the binding result was “binds”.

B2: 008LY1_D04 IgG1 (antibody, V domains shown)
VH: QVQLVQSGAEVKKPGSSVKVSCKASGGTFSSYAISWVRQAPGQGLEWMGGIIPIFGTANYAQKFQGRVTITADESTSTAYMELSSLRSEDTAVYYCARGYVQYGYFDYWGQGTLVTVSS
VL: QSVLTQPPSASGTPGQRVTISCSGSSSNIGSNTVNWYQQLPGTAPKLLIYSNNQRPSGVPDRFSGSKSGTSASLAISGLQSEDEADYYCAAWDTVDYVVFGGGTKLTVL
notes: as for B1
For the molecule B2, the binding result with human CLDN18.2 [2] was “binds”.

B3: 008M0G_G03 IgG1 (antibody, V domains shown)
VH: QVQLVQSGAEVKKPGSSVKVSCKASGGTFSSYAISWVRQAPGQGLEWMGGIIPIFGTANYAQKFQGRVTITADESTSTAYMELSSLRSEDTAVYYCARGYPRYGVFDYWGQGTLVTVSS
VL: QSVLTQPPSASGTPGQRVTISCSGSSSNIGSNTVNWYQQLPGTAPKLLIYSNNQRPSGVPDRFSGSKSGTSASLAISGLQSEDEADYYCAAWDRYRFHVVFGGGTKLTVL
notes: as for B1
As to B3, the binding result in the test with human CLDN18.2 [2] is “binds”.

B4: 008LYG_D08 IgG1 (antibody, V domains shown)
VH: QVQLVQSGAEVKKPGSSVKVSCKASGGTFSSYAISWVRQAPGQGLEWMGGIIPIFGTANYAQKFQGRVTITADESTSTAYMELSSLRSEDTAVYYCARGYQGMGVFDPWGQGTLVTVSS
VL: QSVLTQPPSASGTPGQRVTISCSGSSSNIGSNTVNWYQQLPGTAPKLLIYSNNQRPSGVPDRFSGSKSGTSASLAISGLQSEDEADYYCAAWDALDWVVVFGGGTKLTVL
notes: as for B1
As to B4, the binding result in the test with mouse CLDN18.2 and in the test with human CLDN18.2 [2] was “binds” throughout.

B5: ZP1I18_B08 IgG1 (antibody, V domains shown)
VH: QVQLVQSGAEVKKPGSSVKVSCKASGGTFSSYAISWVRQAPGQGLEWMGGIIPIFGTANYAQKFQGRVTITADESTSTAYMELSSLRSEDTAVYYCARGFIRYGVFDYWGQGTLVTVSS
VL: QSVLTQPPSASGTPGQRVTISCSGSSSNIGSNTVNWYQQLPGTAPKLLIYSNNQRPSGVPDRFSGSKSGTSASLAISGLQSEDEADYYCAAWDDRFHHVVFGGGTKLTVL
notes: as for B1
Consider B5, for which the binding result with human CLDN18.2 [2] is on record as “binds”.

The record behind these values is patent publication US20240132587A1 (AstraZeneca / MedImmune, published 2024).
